Experiment [1] has as its target T1, human glandular kallikrein 2 (hK2) (human, UniProt P20151 25-261). Description: cell-based or functional assay.
In experiment [2] the target is T1, human glandular kallikrein 2 (hK2). Briefly: method not stated (told in the Materials section of Example 10).
In experiment [3] the target is T2, free prostate-specific antigen (fPSA) (human, UniProt P07288 25-261).
T2 construct: In the IRMA, fPSA was spiked into female plasma and captured by mAb H117; also called hk3; human kallikrein 3
Briefly: Time-resolved Eu fluorescence immunoassay: coat goat anti-human polyclonal, 5A10-Fab 15 ng/well, Eu-PSA titrated from about 0.15 to 20 ng/well [upper and lower panels].

By Kd is commonly meant a measure of binding affinity in units of concentration.

T1 sequence (P20151 25-261 limits assumed): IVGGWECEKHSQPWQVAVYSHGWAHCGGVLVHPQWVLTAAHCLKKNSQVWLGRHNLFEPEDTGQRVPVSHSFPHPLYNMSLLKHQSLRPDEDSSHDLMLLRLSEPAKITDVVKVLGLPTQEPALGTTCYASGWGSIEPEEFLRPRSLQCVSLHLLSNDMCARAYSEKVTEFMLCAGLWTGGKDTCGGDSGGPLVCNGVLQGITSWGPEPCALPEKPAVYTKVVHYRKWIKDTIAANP
T2 sequence (P07288 25-261 limits assumed): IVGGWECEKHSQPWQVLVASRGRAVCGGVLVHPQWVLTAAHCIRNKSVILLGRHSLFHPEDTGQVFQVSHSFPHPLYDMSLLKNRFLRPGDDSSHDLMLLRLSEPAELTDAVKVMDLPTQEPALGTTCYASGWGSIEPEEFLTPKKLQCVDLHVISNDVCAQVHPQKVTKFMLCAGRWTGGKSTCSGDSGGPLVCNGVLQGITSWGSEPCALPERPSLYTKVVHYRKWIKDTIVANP

B1: 111In-CHX-A''-DTPA-11B6 (antibody, V domains shown)
VH: DVQLQESGPGLVKPSQSLSLTCTVTGNSITSDYAWNWIRQFPGNRLEWMGYISYSGSTTYSPSLKSRFSITRDTSKNQFFLQLNSVTPEDTATYFCATGYYYGSGFWGQGTLVTVSS
VL: DIVLTQSPASLAVSLGQRATISCRASESVEYFGTSLMHWYRQKPGQPPKLLIYAASNVESGVPARFSGSGSGTDFSLNIQPVEEDDFSMYFCQQTRKVPYTFGGGTKLEIK
modifications: CHX-A''-DTPA chelator conjugated to the antibody and labelled with 111In; sites not stated
For B1, in experiment [1], the “tumor uptake in hK2-expressing xenografts (LnCAP) against hK2-negative xenografts (DU145) at 48 hpi” value was over 3 fold.

B2: mAb 11B6 (mouse monoclonal anti-hK2 antibody) (antibody, V domains shown)
VH: B1 VH
VL: B1 VL
notes: Whole mouse monoclonal antibody obtained from the University of Turku; also called m11B6; mouse mAb 11B6
B2 had a Kd in experiment [2] of about 1.2 nM.

B3: 5A10-Fab (Fab, V domains shown)
VH: EVQLVESGPGILQPSQTLSLTCSFSGFSLSTTGMGVSWIRQPSGKGLEWLAHLYWDEDKRYNPSLKSRLTISEDSSRNQVFLKITSVGPADSATYYCARKGYYGYFDYWGQGTALTVSS
VL: DIVMTQSQKFMSTSVGDRVSVTCKASQNVNTDVAWYQQKPGQSPKALIFSTSYRSSGVPDRFTGSGSGTDFTLTITNVQSEDLAEYFCQQYSNYPLTFGAGTKVDLN
notes: also called exemplary 5A10-Fab; Fab fragment of anti-PSA antibody 5A10
Take B3: the binding result in experiment [3] is on record as “binds”.

The record behind these values is US20200138986A1 (FREDAX, published 2020).
